# Measured values taken from US20220119496A1, “INHIBITORS OF CYSTEINE PEPTIDASES ISOLATED FROM NATURAL RAW MATERIALS AND USE OF THE INHIBITORS IN MEDICINE AND VETERINARY MEDICINE” (priority 2019, published 2022).
# “And” between values parts separate entries of the source, which are not always exact repeats. Equal entries are not always repeated.
# B1: cystatin from egg white: known cystatin from egg white, activity 12 U/mg, stabilized with glycerol; natural cysteine peptidase inhibitor (protein, UniProt P01038 24-139, looked up)
# Cystatin: SEDRSRLLGAPVPVDENDEGLQRALQFAMAEYNRASNDKYSSRVVRVISAKRQLVSGIKYILQVEIGRTTCPKSSGDLQSCEFHDEPEMAKYTTCTFVVYSIPWLNQIKLLESKCQ
# Experiments:
# Porphyromonas gingivalis = details: concentration of 50 WI; cited from earlier work
# [1] = test system: cysteine gingipain in gingival pocket fluids; assay: Inhibition of cysteine gingipain activity in gingival pocket fluids of patients with periodontitis (BApNA substrate); format: biochemical, human; details: not exceeded even with excess inhibitor
# Procedure: In gingival pocket fluids, cysteine gingipain activity was determined as the amount of p-nitroaniline released from BApNA (Benzoyl-DL Arginyl-para-nitroanilide) substrates, or Z-Arg-Arg-pNA (Benzol-DLArg-Arg-β-p-nitroanilide).
# The amount of cysteine peptidases that was used as enzymatic activity was that led to the degradation of the substrates used and release of micromoles of p-nitroaniline from them within 1 minute at 37° C.
# Inhibition was performed in 10 fluid samples from gingival pockets taken from patients diagnosed with periodontitis.
# Determination of gingipain activity in fluids taken from gingival pockets: Fluid from the gingival pockets is taken with small strips of cellulose paper, which are placed in a tube containing 1 ml of PBS. The solution is sonicated for 30 sec on ice, then centrifuged at 10,000 g for 10 min.
# To 1 ml of 20 mM pH 6.0 phosphate buffer containing 2 mM EDTA and 1 mM DTT is added 100 μl gingipain solution, then 20-100 μL inhibitor solution is added, and 20 μL BApNA substrate solution (Benzoyl DL Arginyl para-nitroanilide) 40/mg/ml DMSO. […] Absorbance is measured at 405 nm on a spectrophotometer relative to the control (without inhibitors and papain). Gingipain activity is measured by the amount of para-nitroaniline released.
# chicken embryo = assay: Toxicity in chicken embryo studies; format: in vivo
# [2] = test system: cysteine gingipain in gingival pocket fluids; assay: Dog case study, cystatin in drinking water and gum rubbing; format: in vivo; details: one dog
# Procedure: A female mixed breed, weighing about 5 kg and 7 years old, became dejected and avoided food, staggered and turned over, and purulent discharge leaked from her nose. […] In dormancy, the stone was removed along with four molars on the left. During sleep, gingival pocket fluids were removed from 3 gingival pockets on the right using strips of paper and placed in tubes containing 1 ml of saline. After grinding the paper with ultrasound and centrifugation, the activity of cysteine gingipain was determined in solutions. Their activity ranged from 1.35 to 0.89 units based on 1.0 ml of liquid based on the amount of β-naphthylamine released. For 4 weeks, the dog was given water to drink with the addition of cystatin from egg protein at a concentration of about 10-6% and rubbed the gums with a pad impregnated with 0.001% cystatin from egg white 3-4 times a day. […] After 6 years of surgery, there were no changes in the periodontium. After some time, the dog got used to rubbing his gums, which probably saved him from changes in the periodontium.
# [3] = test system: cysteine gingipain in gingival pocket fluids; assay: In vitro inhibition of cysteine gingipain activity in human gingival pocket fluids by egg white cystatin (BANA substrate); format: biochemical; details: Table 6
# Procedure: (§1) A solution containing known cystatin from egg white with a concentration of 0.02% and activity of 12 U/mg and 20% glycerin was used to rub the gums of dogs (once a day) and added 0.2 ml to a bowl with 200 ml drinking water (1 mU)/ml cystatin) for 4-6 weeks. Liquids from gingival pockets were removed using plaque paper, which was placed in 1 ml saline and frozen at −80° C., before removing plaque calculus. Then, after the aforementioned cystatin therapy from egg white, fluids from the gingival pockets were taken again in an analogous manner and frozen. After obtaining the desired amount of samples, they were thawed, sonicated, centrifuged to then determine the activity of cysteine gingipain in 100 μL samples using a BANA substrate (Benzoyl-arginyl-beta-naphthylamide). Test samples with a volume of 100 μl were preincubated at 37° C. in 0.01 M phosphate buffer pH 6.0 with the addition of 1 μM DL-cysteine and 2 μM EDTA for 10 minutes, then a solution of N-benzoyl DL-arginyl hydrochloride-β-naphthylamide (BANA) so that its final concentration in the test sample was 1.5 mM, and then incubated under these conditions for 30 minutes. After this time, the reaction was stopped by determining the colorimetrically released β-naphthylamine.
# As one unit of enzymatic activity of cysteine proteinases is the amount of enzyme which releases 1.0 nmole of β-naphthylamine from the substrate within one hour under the described incubation conditions, whereas as an inhibitor unit—the amount that inhibits 1 enzyme unit.
# Patients with periodontitis were taken from the gingival pockets before removing the plaque using tissue strips, which were placed in 1 ml of saline and then frozen at −80° C. […] The solution was sonicated, centrifuged and 100 μl of supernatant was taken for determinations. Various amounts of cystatin were added to the test solution, and then the protease activity was determined by the BANA test as in Example 1.
# [4] = test system: cysteine gingipain in gingival pocket fluids; assay: In vivo inhibition of cysteine gingipain activity in dogs (gums rubbed and drinking water with cystatin)
# Procedure: as §1
# Standard tests for which the final result was determined were prepared in parallel with the tested samples, which were solutions containing all components as in the actual tests, except that after adding the BANA substrate the reactions were immediately stopped and the colorimetrically determined free β-naphthylamine was determined. As one unit of enzymatic activity of cysteine proteinases is the amount of enzyme which releases 1.0 nmole of β-naphthylamine from the substrate within one hour under the described incubation conditions, whereas as an inhibitor unit—the amount that inhibits 1 enzyme unit.
# [5] = test system: cysteine gingipain in dogs gingival pockets; assay: In vitro inhibition of cysteine proteases in gingival pocket fluid of dogs (BANA); format: biochemical; set-up: key to Cysteine gingipain activity after adding cystatin: enzyme units; 1 U releases 1.0 nmol β-naphthylamine per hour; details: 40 ng cystatin
# Procedure: as §1
# Standard tests for which the final result was determined were prepared in parallel with the tested samples, which were solutions containing all components as in the actual tests, except that after adding the BANA substrate the reactions were immediately stopped and the colorimetrically determined free β-naphthylamine was determined. […]
# Before periodontal removal, dogs with periodontal disease collected fluid from the gingival pockets using tissue strips that were placed in 1 mL of saline. […] Various amounts of cystatin were added to the test solution, and then the protease activity was determined using the BANA substrate as in Example 1.
# [6] = test system: cysteine gingipain in dogs gingival pockets; details: as disclosed in PL 428931; cited from earlier work
# [7] = Storage stability of inhibitory activity; format: physicochemical; details: about 4° C.
# Text: The protein fractions are combined and the whole is subjected to separation on a membrane permeable compounds of a certain size. Because at this stage the interest is focused on the isolation of peptides and not cystatins, the combined protein fractions were not stabilized with glycerol or other glycols. The main reason for not using a stabilizer is the high probability of blocking the filters used in the separation stage. The combined protein fractions (eluate from the affinity chromatography column) are filtered as quickly as possible using membrane permeable to 3 kDa molecules, and then the low molecular filtrate is desalted on membrane permeable to 700 Da. […] The resulting low molecular weight oligopeptides are able to inhibit cysteine peptidase enzymes such as autogenic cathepsins or bacterial enzymes. The low molecular weight cysteine peptidase inhibitors of the invention thus obtained are stored either in a refrigerator (+4° C.) or in a freezer.
# Inhibitory activity of cystatin and several-amino acid inhibitors of cysteine peptidases were determined in relation to cysteine gingipain in gingival pocket fluids and cysteine cathepsins in cancerous tissues and veins of people with atherosclerosis or native cathepsin B.
# [8] = test system: cysteine gingipain in gingival pocket fluids; details: as disclosed in PL 428931; cited from earlier work
# [9] = individual samples 1-11, after 4-6 weeks cystatin treatment vs before plaque removal, listed as cystatin solution from egg white
molecule,measurement,setting,value
B1,elimination of bacteria from an infected area,Porphyromonas gingivalis,up to 50%
same,inhibition of proteolytic activity in gingival pocket fluids compared to total activity,[1],85%
same,toxicity relative to 0.02% chlorhexidine,chicken embryo,about 105 times lower
same,change of gingipain activity in gingival pocket fluids,"[2]; 4 weeks cystatin in water and gum rubbing 3-4 times a day, sampled after 3 months",reduced almost five-fold
same,tartar build-up and gum redness,[2]; after 3 months,no tartar build-up or redness in the gums
same,"E/F*100 inhibited activity, Average",[3]; average of 23 samples,15.89 ± 6.28%
same,CP activity after adding cystatin,[3]; individual samples 1-23,0.47 U/ml (3×) and 0.61 U/ml and 1.16 U/ml and 0.98 U/ml (2×) and 1.12 U/ml (2×) and 0.75 U/ml and 0.34 U/ml and 0.87 U/ml and 1.22 U/ml and 1.11 U/ml and 2.19 U/ml and 2.52 U/ml and 1.97 U/ml and 3.96 U/ml and 2.18 U/ml and 3.11 U/ml and 1.28 U/ml and 2.74 U/ml and 1.73 U/ml
same,E/F*100 inhibited activity,[3]; individual samples 1-23,18.29% and 28.11% and 10.59% and 10.08% and 26.86% and 18.94% and 9.63% and 5.67% and 11.03% and 14.79% and 10.68% and 14.30% and 8.99% and 14.76% and 11.46% and 21.57% and 24.84% and 24.00% and 22.20% and 24.47% and 13.87% and 20.10% and 16.83%
same,"% inhibited activity, Average",[4]; average of 11 samples,Approximately 67%
same,"% remaining activity, Average",[4]; average of 11 samples,32.97 ± 21.49%
same,"% inhibited activity, Average","[4]; average of 11 samples, listed as cystatin solution from egg white",67.05 ± 21.52%
same,% inhibited activity,[4]; [9],94.79% and 77.31% and 79.23% and 58.9% and 64.33% and 93.50% and 24.24% and 81.26% and 67.68% and 54.78% and 41.55%
same,% remaining activity,[4]; [9],5.51% and 22.69% and 20.77% and 41.10% and 35.67% and 6.50% and 75.76% and 18.73% and 32.32% and 45.22% and 58.45%
same,"% inhibited activity, Average",[5]; average of 19 dogs,87.28 ± 8.92%
same,"% remaining activity, Average",[5]; average of 19 dogs,12.72 ± 8.92%
same,Cysteine gingipain activity after adding cystatin,"[5]; dogs gingival pocket fluid, individual samples 1-19, 12 units/mg protein",0.06 (2×) and 0.04 (3×) and 0.03 (3×) and 0.08 and 0.02 (2×) and 0.07 (2×) and 0.09 and 0.15 and 0.24 and 0.13 (2×) and 0.23
same,"blocked total proteolytic activity, dogs",[6],about 90%
same,inhibitory activity after storage for several months in the refrigerator,[7],dimerizes and loses its biological activity
same,"blocked proteolytic activity in the gingival pocket fluid, humans",[8],about 85%
